Reference: paper PMC5493634, “Intermolecular steric inhibition of Ephexin4 is relieved by Elmo1” (Scientific Reports, 2017)

Molecular target: the molecule itself
Assay: cross-linking; 293T cells transfected with Ephexin4-FLAG, cells incubated with or without 0.25 mM BMH (PBS pH 7.3, 5 mM EDTA) at room temperature for 1 h, then lysed; anti-FLAG immunoblot (Fig. 2d)

B1: Ephexin4 (full-length, wild type) (natural protein, UniProt Q5VV41 1-709, looked up)
chain: MAQRHSDSSLEEKLLGHRFHSELRLDAGGNPASGLPMVRGSPRVRDDAAFQPQVPAPPQPRPPGHEEPWPIVLSTESPAALKLGTQQLIPKSLAVASKAKTPARHQSFGAAVLSREAARRDPKLLPAPSFSLDDMDVDKDPGGMLRRNLRNQSYRAAMKGLGKPGGQGDAIQLSPKLQALAEEPSQPHTRSPAKNKKTLGRKRGHKGSFKDDPQLYQEIQERGLNTSQESDDDILDESSSPEGTQKVDATIVVKSYRPAQVTWSQLPEVVELGILDQLSTEERKRQEAMFEILTSEFSYQHSLSILVEEFLQSKELRATVTQMEHHHLFSNILDVLGASQRFFEDLEQRHKAQVLVEDISDILEEHAEKHFHPYIAYCSNEVYQQRTLQKLISSNAAFREALREIERRPACGGLPMLSFLILPMQRVTRLPLLMDTLCLKTQGHSERYKAASRALKAISKLVRQCNEGAHRMERMEQMYTLHTQLDFSKVKSLPLISASRWLLKRGELFLVEETGLFRKIASRPTCYLFLFNDVLVVTKKKSEESYMVQDYAQMNHIQVEKIEPSELPLPGGGNRSSSVPHPFQVTLLRNSEGRQEQLLLSSDSASDRARWIVALTHSERQWQGLSSKGDLPQVEITKAFFAKQADEVTLQQADVVLVLQQEDGWLYGERLRDGETGWFPEDFARFITSRVAVEGNVRRMERLRVETDV
notes: Ephexin4, guanine nucleotide-exchange factor for RhoG; full-length; also called Epx4; Ephexin4-FLAG
stoichiometry N: 3
